Reference: patent US11702666B2, “Cell-based assay for determining activity in the retinoblastoma pathway” (Medical Diagnostic Laboratories, LLC, priority 2017, dated 2023)

Test system: Rb/E2F1-Dp-1 complex
Assay: CDK4 mutant activity / drug resistance in NanoBiT assay, stable cell line #11
Format: cell-based, human
Method: A linear expression cassette of mutated CDK4 or CDK6 was generated by PCR mediated overlapping extension method. A pair of forward and reverse primers containing the targeted mutations was designed. The mutated codon was located in the middle of a primer flanked by 18-21 nucleotides on each side. Two PCRs (named as PCR #1 and PCR #2 in FIG. 1) were performed using UF-CMV forward and mutated reverse primers, or mutated forward and BGH-UR primers. The PCR products were cleaned up by ExoSAP-IT® (Affymetrix) to remove unconsumed dNTPs and primers. The treated PCR products were mixed together followed by dilution with water. A second round of PCR was performed using the diluted PCR mixture, and the UF and UR primers (FIG. 1). The amplified products were gel-purified. The DNA concentration was quantitated by the optical density at 260 nm using Nanodrop. The targeted mutations were incorporated in the CDK4 or CDK6 genes during the PCR mediated overlapping extension method. The introduced mutations were confirmed by the DNA sequencing.
To examine the ability of the assay to detect variants in CDK4 or CDK6 that affect function, kinase dead mutants and COSMIC (Catalogue Of Somatic Mutations in cancer) unknown mutants were created. For comparison, hyperactive CDK4 or CDK6 mutants known to be hyperactive due to less binding to natural inhibitor p16 were also created. The mutations in CDK4 or CDK6 were created by site-directed mutagenesis. WT or mutated CDK4 or CDK6 along with the CyclinD1 and SB-Rb were co-transfected, under similar conditions as previously indicated (see FIG. 9).
To examine the specificity of the assay, particular CDK4 kinase dead mutants were created. Modifications to D158 were made by changing aspartate to nonpolar alanine (D158A) or positively charged arginine (D158R). […] The mutations in CDK4 were created by site-directed mutagenesis. WT or mutated CDK4 along with the CyclinD1 and SB-Rb was co-transfected into the #11 cell line, under the same conditions as previously indicated. […] Kinase dead mutants have the high signal due to inability to phosphorylate Rb.
Computer modeling was used to reveal the drug-binding pocket and predict drug-resistant mutants. The mutations in CDK4 and CDK6 were created by site-directed mutagenesis. WT or mutated CDK4 or CDK6 along with the CyclinD1 and SB-Rb was co-transfected into #11 cell line, under the same conditions as previously indicated. […] Dose response curves are presented on FIG. 13A and FIG. 13B. Activity of other mutants was very similar to the WT or KD.
CDK4 and CDK6 mutants with known function and unknown function taken from the COSMIC database were analyzed in the present assay and are summarized in Table 7A and Table 7B. The mutants were classified according to their activity. Table 7A and Table 7B also show the number of counts per mutant in the COSMIC database, type of cancer, and luciferase activity compared to the WT (being 100%).

[1] = predicted drug resistant CDK4 mutants, relative to WT
[2] = CDK4 mutants, compared to the WT (being 100%)

Molecule | Luc. activity (/wt) [1] | Luc. activity (/wt) [2]
CDK4 I12L: predicted drug resistant CDK4 mutant (protein, UniProt P11802 2-303, looked up, variant I12L) Cyclin-dependent kinase 4: ATSRYEPVAELGVGAYGTVYKARDPHSGHFVALKSVRVPNGGGGGGGLPISTVREVALLRRLEAFEHPNVVRLMDVCATSRTDREIKVTLVFEHVDQDLRTYLDKAPPPGLPAETIKDLMRQFLRGLDFLHANCIVHRDLKPENILVTSGGTVKLADFGLARIYSYQMALTPVVVTLWYRAPEVLLQSTYATPVDMWSVGCIFAEMFRRKPLFCGNSEADQLGKIFDLIGLPPEDDWPRDVSLPRGAFPPRGPRPVQSVVPEMEESGAQLLLEMLTFNPHKRISAFRALQHSYLHKDEGNPE | 126% | 
CDK4 L49R: predicted drug resistant CDK4 mutant (protein, UniProt P11802 2-303, looked up, variant L49R) Cyclin-dependent kinase 4: ATSRYEPVAEIGVGAYGTVYKARDPHSGHFVALKSVRVPNGGGGGGGRPISTVREVALLRRLEAFEHPNVVRLMDVCATSRTDREIKVTLVFEHVDQDLRTYLDKAPPPGLPAETIKDLMRQFLRGLDFLHANCIVHRDLKPENILVTSGGTVKLADFGLARIYSYQMALTPVVVTLWYRAPEVLLQSTYATPVDMWSVGCIFAEMFRRKPLFCGNSEADQLGKIFDLIGLPPEDDWPRDVSLPRGAFPPRGPRPVQSVVPEMEESGAQLLLEMLTFNPHKRISAFRALQHSYLHKDEGNPE | 281% | 
CDK4 G18A: predicted drug resistant CDK4 mutant (protein, UniProt P11802 2-303, looked up, variant G18A) Cyclin-dependent kinase 4: ATSRYEPVAEIGVGAYATVYKARDPHSGHFVALKSVRVPNGGGGGGGLPISTVREVALLRRLEAFEHPNVVRLMDVCATSRTDREIKVTLVFEHVDQDLRTYLDKAPPPGLPAETIKDLMRQFLRGLDFLHANCIVHRDLKPENILVTSGGTVKLADFGLARIYSYQMALTPVVVTLWYRAPEVLLQSTYATPVDMWSVGCIFAEMFRRKPLFCGNSEADQLGKIFDLIGLPPEDDWPRDVSLPRGAFPPRGPRPVQSVVPEMEESGAQLLLEMLTFNPHKRISAFRALQHSYLHKDEGNPE | 97.5% | 
CDK4 K22M: CDK4 mutant from COSMIC database (protein, UniProt P11802 2-303, looked up, variant K22M) Cyclin-dependent kinase 4: ATSRYEPVAEIGVGAYGTVYMARDPHSGHFVALKSVRVPNGGGGGGGLPISTVREVALLRRLEAFEHPNVVRLMDVCATSRTDREIKVTLVFEHVDQDLRTYLDKAPPPGLPAETIKDLMRQFLRGLDFLHANCIVHRDLKPENILVTSGGTVKLADFGLARIYSYQMALTPVVVTLWYRAPEVLLQSTYATPVDMWSVGCIFAEMFRRKPLFCGNSEADQLGKIFDLIGLPPEDDWPRDVSLPRGAFPPRGPRPVQSVVPEMEESGAQLLLEMLTFNPHKRISAFRALQHSYLHKDEGNPE |  | 141%
CDK4 K35M: CDK4 mutant, literature kinase dead (protein, UniProt P11802 2-303, looked up, variant K35M) Cyclin-dependent kinase 4: ATSRYEPVAEIGVGAYGTVYKARDPHSGHFVALMSVRVPNGGGGGGGLPISTVREVALLRRLEAFEHPNVVRLMDVCATSRTDREIKVTLVFEHVDQDLRTYLDKAPPPGLPAETIKDLMRQFLRGLDFLHANCIVHRDLKPENILVTSGGTVKLADFGLARIYSYQMALTPVVVTLWYRAPEVLLQSTYATPVDMWSVGCIFAEMFRRKPLFCGNSEADQLGKIFDLIGLPPEDDWPRDVSLPRGAFPPRGPRPVQSVVPEMEESGAQLLLEMLTFNPHKRISAFRALQHSYLHKDEGNPE |  | 350%
CDK4 K35R: CDK4 mutant from COSMIC database (protein, UniProt P11802 2-303, looked up, variant K35R) Cyclin-dependent kinase 4: ATSRYEPVAEIGVGAYGTVYKARDPHSGHFVALRSVRVPNGGGGGGGLPISTVREVALLRRLEAFEHPNVVRLMDVCATSRTDREIKVTLVFEHVDQDLRTYLDKAPPPGLPAETIKDLMRQFLRGLDFLHANCIVHRDLKPENILVTSGGTVKLADFGLARIYSYQMALTPVVVTLWYRAPEVLLQSTYATPVDMWSVGCIFAEMFRRKPLFCGNSEADQLGKIFDLIGLPPEDDWPRDVSLPRGAFPPRGPRPVQSVVPEMEESGAQLLLEMLTFNPHKRISAFRALQHSYLHKDEGNPE |  | 310%
CDK4 I51F: predicted drug resistant CDK4 mutant (protein, UniProt P11802 2-303, looked up, variant I51F) Cyclin-dependent kinase 4: ATSRYEPVAEIGVGAYGTVYKARDPHSGHFVALKSVRVPNGGGGGGGLPFSTVREVALLRRLEAFEHPNVVRLMDVCATSRTDREIKVTLVFEHVDQDLRTYLDKAPPPGLPAETIKDLMRQFLRGLDFLHANCIVHRDLKPENILVTSGGTVKLADFGLARIYSYQMALTPVVVTLWYRAPEVLLQSTYATPVDMWSVGCIFAEMFRRKPLFCGNSEADQLGKIFDLIGLPPEDDWPRDVSLPRGAFPPRGPRPVQSVVPEMEESGAQLLLEMLTFNPHKRISAFRALQHSYLHKDEGNPE | 160% | 
CDK4 T102R: predicted drug resistant CDK4 mutant (protein, UniProt P11802 2-303, looked up, variant T102R) Cyclin-dependent kinase 4: ATSRYEPVAEIGVGAYGTVYKARDPHSGHFVALKSVRVPNGGGGGGGLPISTVREVALLRRLEAFEHPNVVRLMDVCATSRTDREIKVTLVFEHVDQDLRRYLDKAPPPGLPAETIKDLMRQFLRGLDFLHANCIVHRDLKPENILVTSGGTVKLADFGLARIYSYQMALTPVVVTLWYRAPEVLLQSTYATPVDMWSVGCIFAEMFRRKPLFCGNSEADQLGKIFDLIGLPPEDDWPRDVSLPRGAFPPRGPRPVQSVVPEMEESGAQLLLEMLTFNPHKRISAFRALQHSYLHKDEGNPE | 156% | 
CDK4 A33S: predicted drug resistant CDK4 mutant (protein, UniProt P11802 2-303, looked up, variant A33S) Cyclin-dependent kinase 4: ATSRYEPVAEIGVGAYGTVYKARDPHSGHFVSLKSVRVPNGGGGGGGLPISTVREVALLRRLEAFEHPNVVRLMDVCATSRTDREIKVTLVFEHVDQDLRTYLDKAPPPGLPAETIKDLMRQFLRGLDFLHANCIVHRDLKPENILVTSGGTVKLADFGLARIYSYQMALTPVVVTLWYRAPEVLLQSTYATPVDMWSVGCIFAEMFRRKPLFCGNSEADQLGKIFDLIGLPPEDDWPRDVSLPRGAFPPRGPRPVQSVVPEMEESGAQLLLEMLTFNPHKRISAFRALQHSYLHKDEGNPE | 182% | 
CDK4 V137I: CDK4 mutant from COSMIC database (protein, UniProt P11802 2-303, looked up, variant V137I) Cyclin-dependent kinase 4: ATSRYEPVAEIGVGAYGTVYKARDPHSGHFVALKSVRVPNGGGGGGGLPISTVREVALLRRLEAFEHPNVVRLMDVCATSRTDREIKVTLVFEHVDQDLRTYLDKAPPPGLPAETIKDLMRQFLRGLDFLHANCIIHRDLKPENILVTSGGTVKLADFGLARIYSYQMALTPVVVTLWYRAPEVLLQSTYATPVDMWSVGCIFAEMFRRKPLFCGNSEADQLGKIFDLIGLPPEDDWPRDVSLPRGAFPPRGPRPVQSVVPEMEESGAQLLLEMLTFNPHKRISAFRALQHSYLHKDEGNPE |  | 120%
CDK4 A157S: predicted drug resistant CDK4 mutant (protein, UniProt P11802 2-303, looked up, variant A157S) Cyclin-dependent kinase 4: ATSRYEPVAEIGVGAYGTVYKARDPHSGHFVALKSVRVPNGGGGGGGLPISTVREVALLRRLEAFEHPNVVRLMDVCATSRTDREIKVTLVFEHVDQDLRTYLDKAPPPGLPAETIKDLMRQFLRGLDFLHANCIVHRDLKPENILVTSGGTVKLSDFGLARIYSYQMALTPVVVTLWYRAPEVLLQSTYATPVDMWSVGCIFAEMFRRKPLFCGNSEADQLGKIFDLIGLPPEDDWPRDVSLPRGAFPPRGPRPVQSVVPEMEESGAQLLLEMLTFNPHKRISAFRALQHSYLHKDEGNPE | 195% | 
CDK4 R24S: CDK4 mutant from COSMIC database (protein, UniProt P11802 2-303, looked up, variant R24S) Cyclin-dependent kinase 4: ATSRYEPVAEIGVGAYGTVYKASDPHSGHFVALKSVRVPNGGGGGGGLPISTVREVALLRRLEAFEHPNVVRLMDVCATSRTDREIKVTLVFEHVDQDLRTYLDKAPPPGLPAETIKDLMRQFLRGLDFLHANCIVHRDLKPENILVTSGGTVKLADFGLARIYSYQMALTPVVVTLWYRAPEVLLQSTYATPVDMWSVGCIFAEMFRRKPLFCGNSEADQLGKIFDLIGLPPEDDWPRDVSLPRGAFPPRGPRPVQSVVPEMEESGAQLLLEMLTFNPHKRISAFRALQHSYLHKDEGNPE |  | 117%
